The labels stand for the following.
B1: Gamma-crystallin S, residues 96 to 176; numbered along this chain, P22914 (parent)
chain: IQIFEKGDFSGQMYETTEDCPSIMEQFHMREIHSCKVLEGVWIFYELPNYRGRQYLLDKKEYRKPIDWGAASPAVQSFRRI

± gives the uncertainty stated by the source.

Variants of B1 are the subject of the data set. In words: abundance fitness (aPCA) (normalised: wild type 0, dead -1); higher = more abundant; growth selection in yeast, the domain comes from the species named. The settings on record: Homo sapiens.
On to IQIFEKGDFSGQMYETTEDCPSIMEQFHMREIHSCKVLEGVWIFYELPNYRGRQYLLDKKEYRKPIDWEAASPAVQSFRRI [G69E], for which the abundance fitness was 0.006 ± 0.21. Turning to IQIFEKGDFSGQMYETTEDCPSIMEQFHMREIHSCKVLEGVWIFYELPNYRGRQYLLDKKEYRKPIDWWAASPAVQSFRRI [G69W], the abundance fitness was -0.018 ± 0.12. Regarding IQIFEKGDFSGQMYETTEDCPSIMEQFHMREIHSCKVLEGVWIFYELPNYRGRQYLLDKKEYRKPIDWPAASPAVQSFRRI [G69P], the abundance fitness was -0.294 ± 0.18. For IQIFEKGDFSGQMYETTEDCPSIMEQFHMREIHSCKVLEGVWIFYELPNYRGRQYLLDKKEYRKPIDWRAASPAVQSFRRI [G69R] the value was 0.012 ± 0.11.

As to IQIFEKGDFSGQMYETTEDCPSIMEQFHMREIHSCKVLEGVWIFYELPNYRGRQYLLDKKEYRKPIDWLAASPAVQSFRRI [G69L], the abundance fitness was 0.022 ± 0.13.

Regarding IQIFEKGDFSGQMYETTEDCPSIMEQFHMREIHSCKVLEGVWIFYELPNYRGRQYLLDKKEYRKPIDWVAASPAVQSFRRI [G69V], the abundance fitness was -0.05 ± 0.12. Take IQIFEKGDFSGQMYETTEDCPSIMEQFHMREIHSCKVLEGVWIFYELPNYRGRQYLLDKKEYRKPIDWKAASPAVQSFRRI [G69K]: the abundance fitness is -0.127 ± 0.18. IQIFEKGDFSGQMYETTEDCPSIMEQFHMREIHSCKVLEGVWIFYELPNYRGRQYLLDKKEYRKPIDWIAASPAVQSFRRI [G69I]: the abundance fitness was determined as 0.09 ± 0.22.

IQIFEKGDFSGQMYETTEDCPSIMEQFHMREIHSCKVLEGVWIFYELPNYRGRQYLLDKKEYRKPIDWMAASPAVQSFRRI [G69M]: the abundance fitness came to 0.052 ± 0.23. On to IQIFEKGDFSGQMYETTEDCPSIMEQFHMREIHSCKVLEGVWIFYELPNYRGRQYLLDKKEYRKPIDWSAASPAVQSFRRI [G69S], for which the abundance fitness amounted to 0.071 ± 0.1. IQIFEKGDFSGQMYETTEDCPSIMEQFHMREIHSCKVLEGVWIFYELPNYRGRQYLLDKKEYRKPIDWQAASPAVQSFRRI [G69Q]: the abundance fitness was -0.166 ± 0.19. On to IQIFEKGDFSGQMYETTEDCPSIMEQFHMREIHSCKVLEGVWIFYELPNYRGRQYLLDKKEYRKPIDWDAASPAVQSFRRI [G69D], for which the abundance fitness is -0.155 ± 0.13.

On to IQIFEKGDFSGQMYETTEDCPSIMEQFHMREIHSCKVLEGVWIFYELPNYRGRQYLLDKKEYRKPIDWGAASPLVQSFRRI [A74L], for which the abundance fitness was 0.113 ± 0.12. Consider IQIFEKGDFSGQMYETTEDCPSIMEQFHMREIHSCKVLEGVWIFYELPNYRGRQYLLDKKEYRKPIDWGAASPEVQSFRRI [A74E], for which the abundance fitness is -0.139 ± 0.29. Consider IQIFEKGDFSGQMYETTEDCPSIMEQFHMREIHSCKVLEGVWIFYELPNYRGRQYLLDKKEYRKPIDWGAASPMVQSFRRI [A74M], for which the abundance fitness is -0.011 ± 0.19. Turning to IQIFEKGDFSGQMYETTEDCPSIMEQFHMREIHSCKVLEGVWIFYELPNYRGRQYLLDKKEYRKPIDWGAASPCVQSFRRI [A74C], the abundance fitness was determined as 0.203 ± 0.16. As to IQIFEKGDFSGQMYETTEDCPSIMEQFHMREIHSCKVLEGVWIFYELPNYRGRQYLLDKKEYRKPIDWGAASPGVQSFRRI [A74G], the abundance fitness came out at 0.046 ± 0.12. For the variant IQIFEKGDFSGQMYETTEDCPSIMEQFHMREIHSCKVLEGVWIFYELPNYRGRQYLLDKKEYRKPIDWGAWSPAVQSFRRI [A71W], the abundance fitness was 0.018 ± 0.092. For IQIFEKGDFSGQMYETTEDCPSIMEQFHMREIHSCKVLEGVWIFYELPNYRGRQYLLDKKEYRKPIDWGALSPAVQSFRRI [A71L], the abundance fitness is -0.223 ± 0.17. On to IQIFEKGDFSGQMYETTEDCPSIMEQFHMREIHSCKVLEGVWIFYELPNYRGRQYLLDKKEYRKPIDWGARSPAVQSFRRI [A71R], for which the abundance fitness stood at 0.007 ± 0.087. The value for IQIFEKGDFSGQMYETTEDCPSIMEQFHMREIHSCKVLEGVWIFYELPNYRGRQYLLDKKEYRKPIDWGAPSPAVQSFRRI [A71P] was 0.128 ± 0.43. IQIFEKGDFSGQMYETTEDCPSIMEQFHMREIHSCKVLEGVWIFYELPNYRGRQYLLDKKEYRKPIDWGAGSPAVQSFRRI [A71G]: the abundance fitness came out at 0.01 ± 0.14.

For the variant IQIFEKGDFSGQMYETTEDCPSIMEQFHMREIHSCKVLEGVWIFYELPNYRGRQYLLDKKEYRKPIDWGADSPAVQSFRRI [A71D], the abundance fitness is -0.308 ± 0.49. In the case of IQIFEKGDFSGQMYETTEDCPSIMEQFHMREIHSCKVLEGVWIFYELPNYRGRQYLLDKKEYRKPIDWGAMSPAVQSFRRI [A71M], the abundance fitness came to 0.022 ± 0.13. As for IQIFEKGDFSGQMYETTEDCPSIMEQFHMREIHSCKVLEGVWIFYELPNYRGRQYLLDKKEYRKPIDWGASSPAVQSFRRI [A71S], the abundance fitness was -0.125 ± 0.12. As for IQIFEKGDFSGQMYETTEDCPSIMEQFHMREIHSCKVLEGVWIFYELPNYRGRQYLLDKKEYRKPIDWGAESPAVQSFRRI [A71E], the abundance fitness worked out at 0.028 ± 0.21. Regarding IQIFEKGDFSGQMYETTEDCPSIMEQFHMREIHSCKVLEGVWIFYELPNYRGRQYLLDKKEYRKPIDWGAHSPAVQSFRRI [A71H], the abundance fitness turned out to be 0.052 ± 0.33.

Consider IQIFEKGDFSGQMYETTEDCPSIMEQFHMREIHSCKVLEGVWIFYELPNYRGRQYLLDKKEYRKPIDWGAQSPAVQSFRRI [A71Q], for which the abundance fitness is -0.187 ± 0.3. Turning to IQIFEKGDFSGQMYETTEDCPSIMEQFHMREIHSCKVLEGVWIFYELPNYRGRQYLLDKKEYRKPIDWGAKSPAVQSFRRI [A71K], the abundance fitness stood at 0.144 ± 0.32. With IQIFEKGDFSGQMYETTEDCPSIMEQFHMREIHSCKVLEGVWIFYELPNYRGRQYLLDKKEYRKPIDWGACSPAVQSFRRI [A71C], the abundance fitness was -0.048 ± 0.16. For IQIFEKGDFSGQMYETTEDCPSIMEQFHMREIHSCKVLEGVWIFYELPNYRGRQYLLDKKEYRKPIDWGAASLAVQSFRRI [P73L], the abundance fitness was 0.338 ± 0.39. As for IQIFEKGDFSGQMYETTEDCPSIMEQFHMREIHSCKVLEGVWIFYELPNYRGRQYLLDKKEYRKPIDWGAASRAVQSFRRI [P73R], the abundance fitness is -0.006 ± 0.11. As to IQIFEKGDFSGQMYETTEDCPSIMEQFHMREIHSCKVLEGVWIFYELPNYRGRQYLLDKKEYRKPIDWGAASEAVQSFRRI [P73E], the abundance fitness is -0.215 ± 0.24. As to IQIFEKGDFSGQMYETTEDCPSIMEQFHMREIHSCKVLEGVWIFYELPNYRGRQYLLDKKEYRKPIDWGAASWAVQSFRRI [P73W], the abundance fitness was determined as 0.089 ± 0.13.

(Values after the Human Domainome abundance scans (Beltran et al. 2025).)
